How the values were obtained:
[1] = molecular target: T1, human CD40 on cells (native CD40 on Ramos cells, human B cells, human monocyte-derived dendritic cells); cell … (human, UniProt P25942 21-193); test: cell-based or functional assay
[2] = molecular target: T1, human CD40 on cells (native CD40 on …); test: cell-based or functional assay; remark: listed apart in the source
[3] = molecular target: T1, human CD40 on cells (native CD40 on …); test: FACS on live Ramos cells, goat anti-human IgG PE
Description: (§1) In another experiment, the ability of the CD40 antibodies to bind to native CD40 protein was determined by FACS analysis with live Ramos cells. Ramos cells were harvested and blocked with 1.5 ml blocking buffer (0.1% BSA/PBS) for 30 minutes. Antibodies at various concentrations were added to cells and incubated for 1 hour. After washing, 50 ul Goat-anti-human IgG (H+L) PE antibody at 1:1000 dilution in blocking solution was added and incubated for 30 minutes. Cells were then washed with PBS and were re-suspended with […] and analyzed by FACS. The antibodies tested were the 19-21 rabbit anti-CD40 agonist antibody, SGN-40 developed by Seattle Genetics and CP870893 from Pfizer.

[4] = molecular target: T2, CD40-Fc protein (Homo sapiens (Human), UniProt P25942 21-193); test: ELISA, plates coated with CD40-Fc protein, OD405nm
T2 construct: not shown: Fc
Source text: In order to assess the ability of the APX005 […] mutant to bind to CD40, APX005 S267E heavy chain and light chain plasmids were purified from transformed bacteria and transfected into 293-6E cell. Four days after transfection, antibody-containing culture supernatants were collected and tested for binding to CD40 using ELISA (ELISA plates coated with CD40-Fc protein).

[5] = molecular target: T1, human CD40 on cells (native CD40 on …); test: FACS on live Ramos cells, goat anti-human IgG (H+L) PE
Description: as §1

T1 sequence (P25942 21-193): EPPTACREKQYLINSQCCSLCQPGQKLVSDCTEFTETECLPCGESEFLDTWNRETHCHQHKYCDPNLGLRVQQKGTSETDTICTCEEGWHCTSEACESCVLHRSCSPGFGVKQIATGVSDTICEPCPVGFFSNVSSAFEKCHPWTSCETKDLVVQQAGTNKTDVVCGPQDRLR
T2 sequence (P25942 21-193 limits assumed): as the sequence (P25942 21-193) above

Pro-apoptosis activity (IC50) [1] [mg/L] | EC50 [5] [mg/L] | Binder | other results
0.45 | – | cR-8, chimeric R-8 (rabbit Fab and human IgG1) (antibody, V domains shown) VH: QSLEESGGDLVKPGASLTLTCTASGFSFSSTYVCWVRQAPGKGLEWIACIYTGDGTNYSASWAKGRFTISKPSSTTVTLQMTSLTPADTATYFCARPDITYGFAINFWGPGTLVTVSS VL: DIVMTQTPSSASEPVGGTVTIKCQASQSISSRLAWYQQKPGQPPKLLIYRASTLASGVPSRFKGSGSGTEFTLTISDLECADAATYYCQCTGYGISWPIGGGTEVVVK | –
0.9 | – | cR-33, chimeric R-33 (rabbit Fab and human IgG1) (antibody, V domains shown) VH: QSLEESGGDLVKPGASLTLTCTASGFSFSSSYWICWVRQAPGKGLEWIACINTGSSVTTVYARWAKGRFTISKASSTTVTLQMTSLTAADTATYFCARYIIPGYNFNLWGPGTLVTVSS VL: AYDMTQTPASVEVAVGGTVTINCQASQSISSYLYWYQQKPGQPPKLLIYDASKLASGVPSRFKGSGSGTQFTLTITGVECADAATYYCQQGYSHINVDNIFGGGTEVVVK | –
– | 0.0266 | APX005 S267E mutant (antibody, human IgG1, V domains shown) VH: QVQLVESGGGVVQPGRSLRLSCAASGFSFSSTYVCWVRQAPGKGLEWIACIYTGDGTNYSASWAKGRFTISKDSSKNTVYLQMNSLRAEDTAVYFCARPDITYGFAINFWGPGTLVTVSS VL: DIQMTQSPSSLSASVGDRVTIKCQASQSISSRLAWYQQKPGKPPKLLIYRASTLASGVPSRFSGSGSGTDFTLTISSLQPEDVATYYCQCTGYGISWPIGGGTKVEIK | EC50 (ng/ml), CD40 agonist activity: up-regulation of CD86 on human B cells [2]: 4.15 ng/mL; fold higher affinity than CP870893 [3]: 6 fold; EC50 [4]: 0.0551 mg/L
– | 0.171 | CP870893 (antibody, V domains shown) VH: not shown VL: DIQMTQSPSSVSASVGDRVTITCRASQGIYSWLAWYQQKPGKAPNLLIYTASTLQSGVPSRFSGSGSGTDFTLTISSLQPEDFATYYCQQANIFPLTFGGGTKVEIK | EC50 (ng/ml), CD40 agonist activity: up-regulation of CD86 on human B cells [2]: 37 ng/mL
0.02 | – | c19-21, chimeric 19-21 (rabbit Fab and human IgG1) (antibody, V domains shown) VH: QSLEESGGRLVTPGTPLTLTCTVSGFDLSSNAMNWVRQAPGKGLEWIGYITISGSAGYASWAKGRFTISKTSTTVDLKISSPTTEDTATYFCARGYNTMAIWGPGTLVTVSS VL: AQVLTQTPSPVSAPVGGTVTINCQSSQNVLINNRLAWYQQKPGQPPKLLIYDASKLASGVPSRFKGSGSGTQFTLTISGVQCDDAATYYCQAGYSSGDGNAFGGGTEVVVK | –
– | 0.0201 | 19-21 rabbit anti-CD40 agonist antibody (antibody, V domains shown, Whether the rabbit or the chimeric form was used there is not clear) VH: QSLEESGGRLVTPGTPLTLTCTVSGFDLSSNAMNWVRQAPGKGLEWIGYITISGSAGYASWAKGRFTISKTSTTVDLKISSPTTEDTATYFCARGYNTMAIWGPGTLVTVSS VL: AQVLTQTPSPVSAPVGGTVTINCQSSQNVLINNRLAWYQQKPGQPPKLLIYDASKLASGVPSRFKGSGSGTQFTLTISGVQCDDAATYYCQAGYSSGDGNAFGGGTEVVVK | –
0.57 | – | cR-3, chimeric R-3 (rabbit Fab and human IgG1) (antibody, V domains shown) VH: QSLEESGGDLVKPGASLTLTCTASGFSFSDSFWIAWVRQAPGKGLEWIGCIHALSSGSTYYANWARGRFTISKTSSTTVTLQMNSLTAADTATYFCARSYAGYADYNVATGLNLWGPGTLVTVSS VL: DVVMTQTPSSASAAVGGTVTTKCQASQSIGSYLAWYQQKPGQRPKLLIYAASNLASGVPSRFKGSRSGTEYTLTISGVQREDAATYYCLGSFTGSDTTFGGGTELEIL | –

— US20230406948A1 (APEXIGEN, published 2023)
